Test results as given in publication doi:10.1101/2020.07.27.223107 (bioRxiv, 2020).

Molecular target: the molecule itself
Assay: SEC-MALLS

B1: N-terminal fragment of human SNED1 (amino acids 1 to 260, includes the NIDO domain), FLAG-tagged (domain or fragment, UniProt Q8TER0 25-260, looked up)
chain: AVALADFYPFGAERGDAVTPKQDDGGSGLRPLSVPFPFFGAEHSGLYVNNNGIISFLKEVSQFTPVAFPIAKDRCVVAAFWADVDNRRAGDVYYREATDPAMLRRATEDVRHYFPELLDFNATWVFVATWYRVTFFGGSSSSPVNTFQTVLITDGKLSFTIFNYESIVWTTGTHASSGGNATGLGGIAAQAGFNAGDGQRYFSIPGSRTADMAEVETTTNVGVPGRWAFRIDDAQV
modifications: N-glycosylated; phosphorylated on serine and threonine residues (sites not mapped)
- stoichiometry N: 2

B2: full-length human SNED1 (Sushi, nidogen and EGF-like domain-containing protein 1), FLAG-tagged (natural protein, UniProt Q8TER0 25-1413, looked up)
chain: AVALADFYPFGAERGDAVTPKQDDGGSGLRPLSVPFPFFGAEHSGLYVNNNGIISFLKEVSQFTPVAFPIAKDRCVVAAFWADVDNRRAGDVYYREATDPAMLRRATEDVRHYFPELLDFNATWVFVATWYRVTFFGGSSSSPVNTFQTVLITDGKLSFTIFNYESIVWTTGTHASSGGNATGLGGIAAQAGFNAGDGQRYFSIPGSRTADMAEVETTTNVGVPGRWAFRIDDAQVRVGGCGHTTSVCLALRPCLNGGKCIDDCVTGNPSYTCSCLSGFTGRRCHLDVNECASQPCQNGGTCTHGINSFRCQCPAGFGGPTCETAQSPCDTKECQHGGQCQVENGSAVCVCQAGYTGAACEMDVDDCSPDPCLNGGSCVDLVGNYTCLCAEPFKGLRCETGDHPVPDACLSAPCHNGGTCVDADQGYVCECPEGFMGLDCRERVPDDCECRNGGRCLGANTTLCQCPLGFFGLLCEFEITAMPCNMNTQCPDGGYCMEHGGSYLCVCHTDHNASHSLPSPCDSDPCFNGGSCDAHDDSYTCECPRGFHGKHCEKARPHLCSSGPCRNGGTCKEAGGEYHCSCPYRFTGRHCEIGKPDSCASGPCHNGGTCFHYIGKYKCDCPPGFSGRHCEIAPSPCFRSPCVNGGTCEDRDTDFFCHCQAGYMGRRCQAEVDCGPPEEVKHATLRFNGTRLGAVALYACDRGYSLSAPSRIRVCQPHGVWSEPPQCLEIDECRSQPCLHGGSCQDRVAGYLCLCSTGYEGAHCELERDECRAHPCRNGGSCRNLPGAYVCRCPAGFVGVHCETEVDACDSSPCQHGGRCESGGGAYLCVCPESFFGYHCETVSDPCFSSPCGGRGYCLASNGSHSCTCKVGYTGEDCAKELFPPTALKMERVEESGVSISWNPPNGPAARQMLDGYAVTYVSSDGSYRRTDFVDRTRSSHQLQALAAGRAYNISVFSVKRNSNNKNDISRPAVLLARTRPRPVEGFEVTNVTASTISVQWALHRIRHATVSGVRVSIRHPEALRDQATDVDRSVDRFTFRALLPGKRYTIQLTTLSGLRGEEHPTESLATAPTHVWTRPLPPANLTAARVTATSAHVVWDAPTPGSLLEAYVINVTTSQSTKSRYVPNGKLASYTVRDLLPGRRYQLSVIAVQSTELGPQHSEPAHLYIITSPRDGADRRWHQGGHHPRVLKNRPPPARLPELRLLNDHSAPETPTQPPRFSELVDGRGRVSARFGGSPSKAATVRSQPTASAQLENMEEAPKRVSLALQLPEHGSKDIGNVPGNCSENPCQNGGTCVPGADAHSCDCGPGFKGRRCELACIKVSRPCTRLFSETKAFPVWEGGVCHHVYKRVYRVHQDICFKESCESTSLKKTPNRKQSKSQTLEKS
modifications: N-glycosylated; phosphorylated on serine and threonine residues (sites not mapped)
- stoichiometry N: 2
